From patent publication US20150353628A1 (published 2015)

How the values were obtained:
[1] = target: T1, pertussis toxin protein (Bordetella pertussis, UniProt P04977 35-269; P04978 28-226; P04979 29-227; P0A3R5 43-152; P04981 35-133); assay: competition ELISA
T1 construct: also called PTx; PT

[2] = target: T1, pertussis toxin protein; assay: ELISA, PTx coated, anti-mouse-HRP secondary
Excerpt: Specifically, the pertussis toxin protein was used for coating while anti-mouse-HRP or anti-human Fc-HRP were used as secondary antibodies. TMB(3,3′,5,5′-Tetramethylbenzidine) was used as substrate for the assay.

[3] = target: T1, pertussis toxin protein; assay: pertussis toxin competition assay (ELISA read-out)

B1: murine m11E6 antibody (antibody, V domains shown)
VH: EVKVVESGGGLVQPGGSLRLSCTTSGFTFTDYYVSWVRQPPGKALEWLGFIRNKVNGYTTEFSSSVKGRFTISRDNSQSILYLQMNTLRVEDSATYYCARVSYYGRGWYFDYWGQGTTLTVSS
VL: DIVMTQSTSSLSASLGDRVTISCRASQDIDNYLSWFQQKPDGTVKLLIYYTSRLHSGVPSRFSGSGSGTDYSLTISSLDQEDIATYFCQQGNTFPWTFGGGTKLEIK
notes: also called parental murine 11E6 antibody; mouse 11E6
[1]
  Kd: 5 nM
[2]
  EC50: 2.7 nM

B2: chimeric 11E6 antibody (antibody, V domains shown)
VH: B1 VH
VL: B1 VL
notes: also called ch11E6
[1]
  Kd: 5 nM

B3: murine m1B7 antibody (antibody, V domains shown)
VH: QVQLQQPGSELVRPGASVKLSCKASGYKFTSYWMHWVKQRPGQGLEWIGNIFPGSGSTNYDEKFNSKATLTVDTSSNTAYMQLSSLTSEDSAVYYCTRWLSGAYFDYWGQGTTLTVSS
VL: QIVLTQSPALMSASPGEKVTMTCSASSSVSFMYWYQQKPRSSPKPWIYLTSNLPSGVPARFSGSGSGTSYSLTISSMEAEDAATYYCQQWSSHPPTFGSGTKLEIK
notes: also called parental murine 1B7 antibody; mouse 1B7
[1]
  Kd: 0.4 nM
[3]
  Kd: 0.15 nM
[2]
  EC50: 0.19 nM

B4: chimeric 1B7 antibody (antibody, V domains shown)
VH: B3 VH
VL: B3 VL
notes: also called ch1B7
[1]
  Kd: 0.5 nM
